Test results: IntAct's records for PubMed 18093920

B1: Syndecan-1 (Homo sapiens), P18827 (parent)
chain: MRRAALWLWLCALALSLQPALPQIVATNLPPEDQDGSGDDSDNFSGSGAGALQDITLSQQTPSTWKDTQLLTAIPTSPEPTGLEATAASTSTLPAGEGPKEGEAVVLPEVEPGLTAREQEATPRPRETTQLPTTHLASTTTATTAQEPATSHPHRDMQPGHHETSTPAGPSQADLHTPHTEDGGPSATERAAEDGASSQLPAAEGSGEQDFTFETSGENTAVVAVEPDRRNQSPVDQGATGASQGLLDRKEVLGGVIAGGLVGLIFAVCLVGFMLYRMKKKDEGSYSLEEPKQANGGAYQKPTKQEEFYA
B2: Syndecan-3 (Homo sapiens), O75056 (parent)
chain: MKPGPPHRAGAAHGAGAGAGAAAGPGARGLLLPPLLLLLLAGRAAGAQRWRSENFERPVDLEGSGDDDSFPDDELDDLYSGSGSGYFEQESGIETAMRFSPDVALAVSTTPAVLPTTNIQPVGTPFEELPSERPTLEPATSPLVVTEVPEEPSQRATTVSTTMATTAATSTGDPTVATVPATVATATPSTPAAPPFTATTAVIRTTGVRRLLPLPLTTVATARATTPEAPSPPTTAAVLDTEAPTPRLVSTATSRPRALPRPATTQEPDIPERSTLPLGTTAPGPTEVAQTPTPETFLTTIRDEPEVPVSGGPSGDFELPEEETTQPDTANEVVAVGGAAAKASSPPGTLPKGARPGPGLLDNAIDSGSSAAQLPQKSILERKEVLVAVIVGGVVGALFAAFLVTLLIYRMKKKDEGSYTLEEPKQASVTYQKPDKQEEFYA
partner: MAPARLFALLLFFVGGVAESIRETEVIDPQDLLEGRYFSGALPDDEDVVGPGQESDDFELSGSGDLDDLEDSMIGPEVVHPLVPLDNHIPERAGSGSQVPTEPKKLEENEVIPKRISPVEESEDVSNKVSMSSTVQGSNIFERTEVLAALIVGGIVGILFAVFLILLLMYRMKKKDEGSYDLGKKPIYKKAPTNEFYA
B3: Syndecan-2 (Homo sapiens), P34741 (parent)
chain: MRRAWILLTLGLVACVSAESRAELTSDKDMYLDNSSIEEASGVYPIDDDDYASASGSGADEDVESPELTTSRPLPKILLTSAAPKVETTTLNIQNKIPAQTKSPEETDKEKVHLSDSERKMDPAEEDTNVYTEKHSDSLFKRTEVLAAVIAGGVIGFLFAIFLILLLVYRMRKKDEGSYDLGERKPSSAAYQKAPTKEFYA
partner: B1 chain
B4: Syndecan-2 (Homo sapiens), P34741 (parent)
chain: B3 chain
partner: B2 partner

Variants of: B1
Details: with sdc2_human SDC2, P34741

| Variant | effect of a mutation on the interaction |
| --- | --- |
| MRRAALWLWLCALALSLQPALPQIVATNLPPEDQDGSGDDSDNFSGSGAGALQDITLSQQTPSTWKDTQLLTAIPTSPEPTGLEATAASTSTLPAGEGPKEGEAVVLPEVEPGLTAREQEATPRPRETTQLPTTHLASTTTATTAQEPATSHPHRDMQPGHHETSTPAGPSQADLHTPHTEDGGPSATERAAEDGASSQLPAAEGSGEQDFTFETSGENTAVVAVEPDRRNQSPVDQGATGASQGLLDRKEVLGGVIALGLVGLIFAVCLVGFMLYRMKKKDEGSYSLEEPKQANGGAYQKPTKQEEFYA [G259L] | decreasing interaction |
| MRRAALWLWLCALALSLQPALPQIVATNLPPEDQDGSGDDSDNFSGSGAGALQDITLSQQTPSTWKDTQLLTAIPTSPEPTGLEATAASTSTLPAGEGPKEGEAVVLPEVEPGLTAREQEATPRPRETTQLPTTHLASTTTATTAQEPATSHPHRDMQPGHHETSTPAGPSQADLHTPHTEDGGPSATERAAEDGASSQLPAAEGSGEQDFTFETSGENTAVVAVEPDRRNQSPVDQGATGASQGLLDRKEVLGGVIAGGLVLLIFAVCLVGFMLYRMKKKDEGSYSLEEPKQANGGAYQKPTKQEEFYA [G263L] | decreasing interaction |

Variants of: B1
Details: with sdc3_human SDC3, O75056

| Variant | effect of a mutation on the interaction |
| --- | --- |
| MRRAALWLWLCALALSLQPALPQIVATNLPPEDQDGSGDDSDNFSGSGAGALQDITLSQQTPSTWKDTQLLTAIPTSPEPTGLEATAASTSTLPAGEGPKEGEAVVLPEVEPGLTAREQEATPRPRETTQLPTTHLASTTTATTAQEPATSHPHRDMQPGHHETSTPAGPSQADLHTPHTEDGGPSATERAAEDGASSQLPAAEGSGEQDFTFETSGENTAVVAVEPDRRNQSPVDQGATGASQGLLDRKEVLGGVIALGLVGLIFAVCLVGFMLYRMKKKDEGSYSLEEPKQANGGAYQKPTKQEEFYA [G259L] | decreasing interaction |
| MRRAALWLWLCALALSLQPALPQIVATNLPPEDQDGSGDDSDNFSGSGAGALQDITLSQQTPSTWKDTQLLTAIPTSPEPTGLEATAASTSTLPAGEGPKEGEAVVLPEVEPGLTAREQEATPRPRETTQLPTTHLASTTTATTAQEPATSHPHRDMQPGHHETSTPAGPSQADLHTPHTEDGGPSATERAAEDGASSQLPAAEGSGEQDFTFETSGENTAVVAVEPDRRNQSPVDQGATGASQGLLDRKEVLGGVIAGGLVLLIFAVCLVGFMLYRMKKKDEGSYSLEEPKQANGGAYQKPTKQEEFYA [G263L] | decreasing interaction |

Variants of: B2
Details: with sdc4_human SDC4, P31431

| Variant | effect of a mutation on the interaction |
| --- | --- |
| MKPGPPHRAGAAHGAGAGAGAAAGPGARGLLLPPLLLLLLAGRAAGAQRWRSENFERPVDLEGSGDDDSFPDDELDDLYSGSGSGYFEQESGIETAMRFSPDVALAVSTTPAVLPTTNIQPVGTPFEELPSERPTLEPATSPLVVTEVPEEPSQRATTVSTTMATTAATSTGDPTVATVPATVATATPSTPAAPPFTATTAVIRTTGVRRLLPLPLTTVATARATTPEAPSPPTTAAVLDTEAPTPRLVSTATSRPRALPRPATTQEPDIPERSTLPLGTTAPGPTEVAQTPTPETFLTTIRDEPEVPVSGGPSGDFELPEEETTQPDTANEVVAVGGAAAKASSPPGTLPKGARPGPGLLDNAIDSGSSAAQLPQKSILERKEVLVAVIVGGVVLALFAAFLVTLLIYRMKKKDEGSYTLEEPKQASVTYQKPDKQEEFYA [G396L] | decreasing interaction |

Variants of: B3
Details: with sdc1_human SDC1, P18827

| Variant | effect of a mutation on the interaction |
| --- | --- |
| MRRAWILLTLGLVACVSAESRAELTSDKDMYLDNSSIEEASGVYPIDDDDYASASGSGADEDVESPELTTSRPLPKILLTSAAPKVETTTLNIQNKIPAQTKSPEETDKEKVHLSDSERKMDPAEEDTNVYTEKHSDSLFKRTEVLAAVIALGVIGFLFAIFLILLLVYRMRKKDEGSYDLGERKPSSAAYQKAPTKEFYA [G152L] | decreasing interaction |
| MRRAWILLTLGLVACVSAESRAELTSDKDMYLDNSSIEEASGVYPIDDDDYASASGSGADEDVESPELTTSRPLPKILLTSAAPKVETTTLNIQNKIPAQTKSPEETDKEKVHLSDSERKMDPAEEDTNVYTEKHSDSLFKRTEVLAAVIAGGVILFLFAIFLILLLVYRMRKKDEGSYDLGERKPSSAAYQKAPTKEFYA [G156L] | decreasing interaction |

Variants of: B4
Details: with sdc4_human SDC4, P31431

| Variant | effect of a mutation on the interaction |
| --- | --- |
| MRRAWILLTLGLVACVSAESRAELTSDKDMYLDNSSIEEASGVYPIDDDDYASASGSGADEDVESPELTTSRPLPKILLTSAAPKVETTTLNIQNKIPAQTKSPEETDKEKVHLSDSERKMDPAEEDTNVYTEKHSDSLFKRTEVLAAVIAGGVILFLFAIFLILLLVYRMRKKDEGSYDLGERKPSSAAYQKAPTKEFYA [G156L] | decreasing interaction |
| MRRAWILLTLGLVACVSAESRAELTSDKDMYLDNSSIEEASGVYPIDDDDYASASGSGADEDVESPELTTSRPLPKILLTSAAPKVETTTLNIQNKIPAQTKSPEETDKEKVHLSDSERKMDPAEEDTNVYTEKHSDSLFKRTEVLAAVIALGVIGFLFAIFLILLLVYRMRKKDEGSYDLGERKPSSAAYQKAPTKEFYA [G152L] | decreasing interaction |
